As usually defined, the Kd is the equilibrium constant for the complex coming apart. Low values mean tighter binding, high ones weaker binding.

In the assay the target is SARS-CoV-2 D614G spike (SARS-CoV-2, UniProt P0DTC2 14-1208). In words: SPR. In general terms: Surface plasmon resonance follows binding to a sensor surface in real time, without labels.

B1: Fab 2A10 (antibody, V domains shown)
VH: QVQLVESGGGLIQPGGSLRLSCAASEFIVSSNYMSWVRQAPGKGLEWVSLLYSGGTTYYADSVKGRFTISRDNSKNTLFLQMNSLRAEDTAMYYCARDRGPWLHDYWGQGTLVTVS
VL: DIVMTQSPSSLSASVGDRVTITCQASQDINKYCNWYQQKPGKAPKLLIYDASNLETGVPSRFSGSGSGTDFTFTINSLQPEDIATYYCQQYDNLPPTFGGGTKVEIK
Molecule B1 registered a Kd of 0.161 nM.

B2: 1C3 antigen-binding fragment (Fab) (Fab, V domains shown)
VH: QVQLLESGGGLVQPGRSLRLSCAASGFTFDDYAMHWVRQPPGKGLEWVSGSSWNSGSVVYADSVKGRFTISRDSAKNSLHLQMNSLRVEDTALYYCAKAVDPTRGSYSPDYGFDIWGQGTMVTVS
VL: not shown
B2 showed a Kd of 0.043 nM.

These data come from patent US20250382353A1 (published 2025).
